Laboratory results published in paper PMC12858062 (PLOS Pathogens, 2026).

Legend:
Assay in all cases: far-Western, overlay or dot blot; western blot: non-reduced lysate of P. falciparum NF54 iGP2 stage V gametocytes separated by SDS-PAGE, probed with 0.1 µg/mL antibodies for 1 h at RT; HRP anti-human IgG
Details in all cases: one partner purified
[1] = biological target: D3-Fc (anti-Pfs48/45 nanobody D3 fused to hinge and Fc of human IgG1) (alpaca)
[2] = biological target: D4-Fc (anti-Pfs48/45 nanobody D4 fused to hinge and Fc of human IgG1) (alpaca)
[3] = biological target: F6-Fc (anti-Pfs48/45 nanobody F6 fused to hinge and Fc of human IgG1) (alpaca)
[4] = biological target: G3-Fc (anti-Pfs48/45 nanobody G3 fused to hinge and Fc of human IgG1) (alpaca)
[5] = biological target: H4-Fc (anti-Pfs48/45 nanobody H4 fused to hinge and Fc of human IgG1) (alpaca)
[6] = biological target: A4-Fc (anti-Pfs48/45 nanobody A4 fused to hinge and Fc of human IgG1) (alpaca)
[7] = biological target: B2-Fc (anti-Pfs48/45 nanobody B2 fused to hinge and Fc of human IgG1) (alpaca)
[8] = biological target: C1-Fc (anti-Pfs48/45 nanobody C1 fused to hinge and Fc of human IgG1) (alpaca)
[9] = biological target: C3-Fc (anti-Pfs48/45 nanobody C3 fused to hinge and Fc of human IgG1) (alpaca)
[10] = biological target: C7-Fc (anti-Pfs48/45 nanobody C7 fused to hinge and Fc of human IgG1) (alpaca)

Measured: binding result

B1: Full-length Pfs48/45 from P. falciparum NF54 iGP2 stage V gametocytes (natural protein)
chain: NNDFCKPSSLNSEISGFIGYKCNFSNEGVHNLKPDMRERRSIFCTIHSYFIYDKIRLIIPKKSSSPEFKILPEKCFQKVYTDYENRVETDISELGLIEYEIEENDTNPNYNERTITISPFSPKDIEFFCFCDNTEKVISSIEGRSAMVHVRVLKYPHNILFTNLTNDLFTYLPKTYNESNFVSNVLEVELNDGELFVLACELINKKCFQEGKEKALYKSNKIIYHKNLTIFKAPFYVTSKDVNTECTCKFKNNNYKIVLKPKYEKKVIHGCNFSSNVSSKHTFTDSLDISLVDDSAHISCNVHLSEPKYNHLVGLNCPGDIIPDCFFQVYQPESEELEPSNIVYLDSQINIGDIEYYEDAEGDDKIKLFGIVGSIPKTTSFTCICKKDKKSAYMTVTID
binds: all assays above
